Results: US20150098945A1 (Daiichi Sankyo, published 2015)
Where two headings read alike, the source gives them in different places. Each block holds one binder with its values, some of them ahead of it.

What was measured:
[1] = biological target: T1, N-terminal FLAG-tagged human ROBO4 extracellular region/domain deletion variant hROBO4-225 (human, UniProt Q8WZ75 225-1007); test: flow cytometry, HEK293 cells transfected with pCI-FLAG-hROBO4-225, anti-mouse IgG FITC; control histogram IgG (Mouse IgG2a)
T1 construct: On transfected HEK293 cells
T1 sequence: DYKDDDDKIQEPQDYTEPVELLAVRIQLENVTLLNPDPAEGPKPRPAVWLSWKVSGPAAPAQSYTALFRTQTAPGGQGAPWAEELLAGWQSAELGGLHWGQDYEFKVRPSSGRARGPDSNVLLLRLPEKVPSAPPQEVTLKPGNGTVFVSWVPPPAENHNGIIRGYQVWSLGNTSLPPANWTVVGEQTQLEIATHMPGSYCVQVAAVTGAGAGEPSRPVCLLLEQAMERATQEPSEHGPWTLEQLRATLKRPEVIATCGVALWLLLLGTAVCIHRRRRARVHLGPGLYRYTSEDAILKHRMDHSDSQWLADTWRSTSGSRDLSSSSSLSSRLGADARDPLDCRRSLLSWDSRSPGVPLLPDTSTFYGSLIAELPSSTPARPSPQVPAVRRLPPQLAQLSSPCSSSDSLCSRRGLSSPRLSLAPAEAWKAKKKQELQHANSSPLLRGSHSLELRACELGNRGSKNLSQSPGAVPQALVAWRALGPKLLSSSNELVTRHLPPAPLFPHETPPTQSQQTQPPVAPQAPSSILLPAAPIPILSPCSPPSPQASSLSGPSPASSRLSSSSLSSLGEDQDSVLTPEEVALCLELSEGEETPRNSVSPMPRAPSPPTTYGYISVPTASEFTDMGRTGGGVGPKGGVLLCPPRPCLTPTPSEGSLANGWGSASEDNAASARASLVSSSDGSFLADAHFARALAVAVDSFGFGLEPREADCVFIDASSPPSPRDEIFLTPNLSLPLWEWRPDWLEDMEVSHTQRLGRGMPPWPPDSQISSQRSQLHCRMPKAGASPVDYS
Protocol: Each cell suspension prepared in 4)-5-1 was centrifuged, and the supernatant was removed. Then, MAb1, a positive control Monoclonal ANTI-FLAG M2 antibody produced in mouse, or a negative control Mouse IgG2a was added at a concentration of 10 μg/mL to 2×10⁵ expression vector-transfected cells, and the resulting suspension was left standing at 4° C. for 1 hour. The cells were washed once with PBS containing 5% FBS. Then, Anti-Mouse IgG FITC conjugate diluted 1000-fold with PBS containing 5% FBS was added thereto, and the resulting suspension was left standing at 4° C. for 1 hour. The cells were washed with three times with PBS containing 5% FBS, then resuspended in PBS containing 5% FBS, and subjected to detection using a flow cytometer (BD FACSCalibur; BD Biosciences). Data was analyzed using Flowjo. The histogram of FITC fluorescence intensity was prepared. The antibody was determined to bind to a cell when the histogram of MAb1 was shifted to a stronger fluorescence intensity region compared with the histogram of the negative control Mouse IgG2a. […] In this context, each intracellular region/domain deletion variant was confirmed to be expressed on the cell membrane using the positive control anti-FLAG antibody (FIG. 9).

[2] = biological target: T2, N-terminal FLAG-tagged cynomolgus monkey ROBO4, cynoROBO4-2 (pCI-FLAG-cynoROBO4-2) (cynomolgus monkey, UniProt Q8WZ75 28-1007 (human entry)); test: flow cytometry (FC500), HEK293 cells transfected with pCI-FLAG-cynoROBO4-2, antibody at 10 µg/mL, FITC goat anti-human IgG Fc; control histogram IgG (human IgG)
T2 chain: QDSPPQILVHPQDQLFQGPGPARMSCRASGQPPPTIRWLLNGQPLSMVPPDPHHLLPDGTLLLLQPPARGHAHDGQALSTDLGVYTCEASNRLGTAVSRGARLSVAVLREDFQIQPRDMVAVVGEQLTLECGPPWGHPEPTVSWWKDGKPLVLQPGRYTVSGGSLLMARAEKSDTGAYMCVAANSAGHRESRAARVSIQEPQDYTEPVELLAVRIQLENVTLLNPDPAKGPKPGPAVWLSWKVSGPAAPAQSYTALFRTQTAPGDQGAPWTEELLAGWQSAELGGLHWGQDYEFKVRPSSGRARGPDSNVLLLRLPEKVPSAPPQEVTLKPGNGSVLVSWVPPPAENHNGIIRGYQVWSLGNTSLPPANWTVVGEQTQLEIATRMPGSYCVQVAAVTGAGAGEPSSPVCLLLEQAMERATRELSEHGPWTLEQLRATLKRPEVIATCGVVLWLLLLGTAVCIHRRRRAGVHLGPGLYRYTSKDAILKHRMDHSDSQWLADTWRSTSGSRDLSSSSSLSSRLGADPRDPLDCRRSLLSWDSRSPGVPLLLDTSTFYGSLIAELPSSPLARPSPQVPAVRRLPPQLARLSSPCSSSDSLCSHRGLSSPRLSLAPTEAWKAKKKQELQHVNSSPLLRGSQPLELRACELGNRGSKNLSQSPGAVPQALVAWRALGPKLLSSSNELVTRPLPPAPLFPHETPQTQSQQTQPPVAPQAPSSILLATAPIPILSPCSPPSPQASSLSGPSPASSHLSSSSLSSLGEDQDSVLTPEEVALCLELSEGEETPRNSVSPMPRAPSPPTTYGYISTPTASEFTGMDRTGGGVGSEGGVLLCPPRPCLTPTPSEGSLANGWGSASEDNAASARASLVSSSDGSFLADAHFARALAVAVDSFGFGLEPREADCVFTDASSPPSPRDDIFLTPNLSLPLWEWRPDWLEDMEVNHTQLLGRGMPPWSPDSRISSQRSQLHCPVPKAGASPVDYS

[3] = biological target: T2, N-terminal FLAG-tagged cynomolgus …; test: as above

binding result [1]: no binding (tested: 10 µg/mL)
B1: anti-ROBO4 mouse monoclonal antibody MAb1 (antibody, mouse IgG1, V domains shown)
VH: EVQLVESGGGLVKPGGSLKLSCAASGFTFSTYAMSWVRQTPEKRLEWVATISNGGTYTYYPDSVKGRFTISRDNAENTLYLQMSSLRSEDTAMYFCARLIYYDYLDYWGHGTTLTVSS
VL: DAVMTQTPLSLPVSLGDQASISCRSSQSLENSNGNTYLNWYFQKPGQSPQLLIYRVSNRFSGVLDRFSGSGSGTDFTLKISRVEAEDFGVYFCLQVTHVPWTFGGGTKLEIKR
notes: Mouse IgG1 (gamma1), kappa light chain, purified from hybridoma supernatant; also called parent antibody MAb1

binding result [2]: binds
B2: humanized MAb1 antibody H-1143 (antibody, human IgG2, kappa, V domains shown)
VH: EVQLVESGGGLVQPGGSLRLSCAASGFTFSTYAMSWVRQAPGKGLEWVATISQGGTYTYYPDSVKGRFTISRDNAKNTLYLQMNSLRAEDTAVYYCARLIYYDYLDYWGQGTLVTVSS
VL: DIVMTQSPLSLPVTLGEPASISCRSSQSLENENKNLYLNWYLQKPGQSPQLLIYRVSNRFSGVPDRFSGSGSGTDFTLKISRVEAEDVGVYYCLQVTHVPWTFGPGTKVDIKR
notes: Human IgG2 / kappa constant regions; also called hMAb1-H2-type heavy chain + hMAb1-L2-type light chain

binding result [3]: binds
B3: humanized MAb1 antibody H-2140 (antibody, human IgG2, kappa, V domains shown)
VH: EVQLVESGGGLVQPGGSLRLSCAASGFTFSTYAMSWVRQAPGKRLEWVATISQGGTYTYYPDSVKGRFTISRDNAKNTLYLQMNSLRAEDTAVYYCARLIYYDYLDYWGQGTLVTVSS
VL: DIVMTQSPLSLPVTLGEPASISCRSSQSLENSNGNTYLNWYLQKPGQSPQLLIYRVSNRFSGVPDRFSGSGSGTDFTLKISRVEAEDVGVYYCLQVTHVPWTFGPGTKVDIKR
notes: Human IgG2 / kappa constant regions; also called hMAb1-H4-type heavy chain + hMAb1-L1-type light chain
